According to patent publication US20260159579A1 (Pfizer, published 2026):

Target: T1, Mouse Fc-cynomolgus monkey GDF15 (Mu IgG1Fc_Fxa_Cyno GDF15) (cynomolgus monkey)
T1 construct: Whole entry is the fusion: mouse IgG1 Fc, FXa site and linker, cynomolgus GDF15; described as dimeric; also called Murine dimeric IgG1 Fc-cyno GDF-15 with FXa cleavage site
T1 chain: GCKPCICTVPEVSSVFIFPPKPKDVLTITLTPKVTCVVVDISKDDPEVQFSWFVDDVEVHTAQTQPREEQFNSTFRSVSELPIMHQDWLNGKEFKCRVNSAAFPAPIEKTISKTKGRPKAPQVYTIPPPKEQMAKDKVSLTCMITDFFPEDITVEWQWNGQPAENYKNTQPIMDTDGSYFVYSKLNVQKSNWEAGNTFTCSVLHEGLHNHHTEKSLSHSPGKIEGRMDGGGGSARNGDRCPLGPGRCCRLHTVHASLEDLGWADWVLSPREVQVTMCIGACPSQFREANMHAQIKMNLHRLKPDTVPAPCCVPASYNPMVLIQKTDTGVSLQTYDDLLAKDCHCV
Assay: SPR BIAcore T200, 37C; Fc-GDF15 captured, monomeric Fc-Fab as analyte; average of runs
Source text: To understand the KD value, without the avidity effect, of GDF15_001 binding to GDF15, monomeric Fc-Fab was produced and tested in the same assay used in Example 2. […] Mu IgG1Fc_Fxa_Hu GDF15, Mu IgG1Fc_Fxa_Mu GDF15 and Mu IgG1Fc_Fxa_Cyno GDF15 were captured onto three different flow cells of a CM4 sensorchip (catalogue number BR100534, GE Healthcare) surface using the Mouse Antibody Capture Kit (BR100838, GE Healthcare) according to the manufacturer's protocol. The running and sample buffer was 10 mM HEPES pH 7.4, 0.15M NaCl, 3 mM EDTA, 0.05% P-20 (HBS-EP+). The final capture levels of Mu IgG1Fc_Fxa_Hu GDF15, Mu IgG1Fc_Fxa_Mu GDF15 and Mu IgG1Fc_Fxa_Cyno GDF15 were 19 resonance units (RU), 22 RU and 19 RU respectively. Flow cell 1 was used as a reference flow cell. […] The dissociation was monitored for 1200 seconds and the surface was regenerated with 10 mM Glycine pH 1.7. Binding affinities and rate constants were determined by fitting the resulting sensorgram data to a 1:1 Langmuir model in BIAcore T200 Evaluation software version 2.0 (GE Healthcare).

- Kd: 0.062 nM
- koff: 8.43e-05 s⁻¹
- kon: 1.42e+06 M⁻¹ s⁻¹
B1: monomeric GDF15_001 (CH23LS-GBT-GDF15_001) (Fab, V domains shown)
VH: QVQLVQSGAEVKKPGSSVKVSCKASGYTFSSYNIDWVRQAPGQGLEWMGGINPIFGTAFYNQKFQGRVTITADESTSTAYMELSSLRSEDTAVYYCAREAITTVGAMDHWGQGTLVTVSS
VL: EIVLTQSPATLSLSPGERATLSCRTSQSVHNYLAWYQQKPGQAPRLLIYDASTRADGIPARFSGSGSGTDFTLTISSLEPEDFAVYYCQQFWSWPWTFGQGTKVEIK
notes: Monovalent 'monomeric Fc-Fab' of GDF15_001 made to measure KD without avidity; also called CH23LS-GDF15_001; monomeric Fc-Fab
